Reference: patent publication US20180273635A1 (Zymeworks, published 2018)
Each block holds one binder with its values, some of them ahead of it.

Legend:
Recombinant human HER2 [1] = target: T1, Recombinant human HER2 (human, UniProt P04626 23-652); assay: SPR at 25 C, affinity against v10014 (itself, reference)
T1 construct: extracellular domain; also called HER2 ECD
Method: (§1) The affinity towards HER2 ECD of the samples was measured by SPR on a Biacore T200 as follows. Between 2000 and 4000 RU of anti-human Fc injected at concentration between 5 and 10 μg/ml was immobilized on a CM5 chip using standard amine coupling. Antigen-binding constructs were captured on the anti-human Fc (injected at concentration at 0.51 microg/mL in PBST, 1 min at 10 microl/min) at response levels ranging from 120-270 RU. […] HER2 dilutions were analyzed in duplicates. Sensograms were fit globally to a 1: 1 Langmuir binding model, using the software provided with the Biacore T200. All experiments were conducted at 25° C.

Recombinant human HER2 [2] = target: T1, Recombinant human HER2; assay: SPR at 25 C, affinity against WT v10013
Method: as §1

[3] = target: T2, HER2 expressed on the surface of cells (human, UniProt P04626 23-1255); assay: flow cytometry on MCF7 cells (low HER2), n=1
T2 construct: whole, on cells; also called ErbB2
Method: (§2) Binding of the test antigen-binding constructs to the surface of HER2+ cells was determined by flow cytometry. Cells were washed with PBS and resuspended in DMEM at 1×10⁵ cells/100 μl. 100 μl cell suspension was added into each microcentrifuge tube, followed by 10 μl/tube of the antigen-binding constructs. The tubes were incubated for 2 hr at 4° C. on a rotator. The microcentrifuge tubes were centrifuged for 2 min 2000 RPM at room temperature and the cell pellets washed with 500 μl media. Each cell pellet was resuspended in 100 μl of fluorochrome-labelled secondary antibody diluted in media to 2 μg/sample. The samples were then incubated for lhr at 4° C. on a rotator. After incubation, the cells were centrifuged for 2 min at 2000 rpm and washed in media. The cells were resuspended in 500 μl media, filtered, transferred to a tube containing 5 μl propidium iodide (PI) and analyzed on a BD LSR II flow cytometer according to the manufacturer's instructions. The B50 of the tested antigen-binding constructs was assessed by FACS with data analysis and curve fitting performed in GraphPad Prism. The experiment was carried out once (n=1) in SKBr3 cells, and twice (n=2) in SKOV3, MCF7, and BT-474 cells.
(§3) The experiment was performed once (n=1) in each cell line.

[4] = target: T2, HER2 expressed on the surface of cells; assay: flow cytometry on BT474 cells, n=1
Method: as §2, §3

[5] = target: T2, HER2 expressed on the surface of cells; assay: cell-based or functional assay
[6] = target: T2, HER2 expressed on the surface of cells; assay: cell-based or functional assay; remark: listed apart in the source
[7] = target: T2, HER2 expressed on the surface of cells; assay: flow cytometry on MCF7 cells (low HER2), n=1; B50 = concentration at 50% of Bmax
Method: as §2, §3

[8] = target: T2, HER2 expressed on the surface of cells; assay: flow cytometry on SKBR3 cells, n=1; B50 = concentration at 50% of Bmax
Method: as §2, §3

[9] = target: T2, HER2 expressed on the surface of cells; assay: flow cytometry on BT474 cells, n=1; B50 = concentration at 50% of Bmax
Method: as §2, §3

[10] = target: T2, HER2 expressed on the surface of cells; assay: cell-based or functional assay; remark: listed apart in the source
[11] = target: T2, HER2 expressed on the surface of cells; assay: cell-based or functional assay; remark: listed apart in the source
[12] = target: T2, HER2 expressed on the surface of cells; assay: flow cytometry on SKBR3 cells, n=1
Method: as §2, §3

[13] = target: T2, HER2 expressed on the surface of cells; assay: cell-based or functional assay; remark: listed apart in the source
[14] = target: T2, HER2 expressed on the surface of cells; assay: cell-based or functional assay; remark: listed apart in the source
[15] = target: T2, HER2 expressed on the surface of cells; assay: cell-based or functional assay; remark: listed apart in the source
Recombinant human HER2 [16] = target: T3, Recombinant human HER2 (human, UniProt P04626 23-652); assay: SPR, FSA captured on anti-human Fc, HER2 flowed, 25 C, after protein A and SEC
T3 construct: extracellular domain; analyte of the SPR assays; also called HER2 ECD; ECD2 of HER2

Fold wrt v10014 (Recombinant human HER2 [1]): 1 fold
Fold wrt WT (Recombinant human HER2 [2]): 7 fold
B1: Variant 10014 (pertuzumab T30A / Y96A, one-armed format) (antibody)
heavy: EVQLVESGGGLVQPGGSLRLSCAASGFTFADYTMDWVRQAPGKGLEWVADVNPNSGGSIYNQRFKGRFTLSVDRSKNTLYLQMNSLRAEDTAVYYCARNLGPSFYFDYWGQGTLVTVSSASTKGPSVFPLAPSSKSTSGGTAALGCLVKDYFPEPVTVSWNSGALTSGVHTFPAVLQSSGLYSLSSVVTVPSSSLGTQTYICNVNHKPSNTKVDKKVEPKSCDKTHTCPPCPAPELLGGPSVFLFPPKPKDTLMISRTPEVTCVVVDVSHEDPEVKFNWYVDGVEVHNAKTKPREEQYNSTYRVVSVLTVLHQDWLNGKEYKCKVSNKALPAPIEKTISKAKGQPREPQVYVYPPSRDELTKNQVSLTCLVKGFYPSDIAVEWESNGQPENNYKTTPPVLDSDGSFALVSKLTVDKSRWQQGNVFSCSVMHEALHNHYTQKSLSLSPG
light: not shown
Fc: not shown
notes: Monovalent one-armed (OA) antibody; also called v10014

Bmax [3]: 570 MFI
Bmax [4]: 23000 MFI
growth inhibition IC50 (potency), NCI-N87 cells, 5 days [6]: 1.8 nM
increase in efficacy with respect to the WT, NCI-N87 cells [6]: 1.9 fold
increase in potency with respect to the WT, NCI-N87 cells [6]: 5.1 fold
B50 [7]: 1.2 nM
B50 [8]: 6.6 nM
B50 [9]: 3.1 nM
growth inhibition IC50 (potency), SKBR3 cells [10]: 0.12 nM
growth inhibition span ratio to WT, SKBR3 cells [10]: 1.3 fold
growth inhibition IC50 (potency), SKBR3 cells, 5 days [11]: 0.1 nM
Bmax [12]: 27000 MFI
growth inhibition IC50 (potency), BT474 cells + EGF [13]: 1 nM
growth inhibition span ratio to WT, BT474 cells + EGF [13]: 1.5 fold
growth inhibition IC50 (potency), BT474 cells [14]: 0.31 nM
growth inhibition span ratio to WT, BT474 cells [14]: 2.5 fold
growth inhibition IC50, BT474 cells + EGF, 6 days [15]: 0.3 nM
growth inhibition IC50, BT474 cells, 6 days [15]: 0.1 nM
B2: Variant 12471 (antibody, human IgG1, kappa, name in Kabat numbering, V domains shown)
VH: EVQLVESGGGLVQPGGSLRLSCAASGFTFADYTMDWVRQAPGKGLEWVGDVNPNSGGSIYNQRFKGRFTFSVDRSKNTLYLQMNSLRAEDTAVYYCARNLGPSFYFDYWGQGTLVTVSS
VL: DIQMTQSPSSLSASVGDRVTITCKASQDVSIGVAWYQQKPGKAPKLLIYSASYRYTGVPSRFSGSGSGTDFTLTISSLQPEDFATYYCQQYYIYPATFGQGTKVEIKR
notes: Kabat numbering; also called v12471; FSA version of v9996
growth inhibition span (percentage of cells killed), MDA-MB-175 cells [5]: 75%
growth inhibition span (percentage of cells killed), NCI-N87 cells [6]: 32%
growth inhibition span (percentage of cells killed), SKBR3 cells [10]: 22%
growth inhibition span (percentage of cells killed), BT474 cells + EGF [13]: 27%
growth inhibition span (percentage of cells killed), BT474 cells [14]: 26%

Kd (Recombinant human HER2 [16]): 1.8 nM
B3: variant 12471 (antibody, human IgG1, kappa, name in Kabat numbering, V domains shown)
VH: EVQLVESGGGLVQPGGSLRLSCAASGFTFADYTMDWVRQAPGKGLEWVGDVNPNSGGSIYNQRFKGRFTFSVDRSKNTLYLQMNSLRAEDTAVYYCARNLGPSFYFDYWGQGTLVTVSS
VL: DIQMTQSPSSLSASVGDRVTITCKASQDVSIGVAWYQQKPGKAPKLLIYSASYRYTGVPSRFSGSGSGTDFTLTISSLQPEDFATYYCQQYYIYPATFGQGTKVEIKR
notes: FSA, bivalent, wild type Fc; also called v12471; FSA version of v9996
